From patent US20090068224A1, “METHOD TO IDENTIFY POLYPEPTIDE TOLL-LIKE RECEPTOR (TLR) LIGANDS” (VAXINNATE CORPORATION, priority 2005, published 2009)

Tests used:
TLR2 = TLR2 (Homo sapiens, UniProt O60603); experiment: T7 phage biopanning, 4 rounds (negative on parental HEK293, positive on 293.hTLR2 cells); share of 109 sequenced clones
[1] = target: human TLR2 (293.hTLR2 cells) (Homo sapiens, UniProt O60603); experiment: Biopanning of pentameric random peptide phage display library, sequencing of enriched clones; type: binding; settings: percentage of all clones sequenced (n = 109) having given peptide sequence, after 4 rounds of biopanning, TLRlo parental HEK293, TLRhi 293.hTLR2
human TLR2 (293.hTLR2 cells), sequence (O60603 21-784): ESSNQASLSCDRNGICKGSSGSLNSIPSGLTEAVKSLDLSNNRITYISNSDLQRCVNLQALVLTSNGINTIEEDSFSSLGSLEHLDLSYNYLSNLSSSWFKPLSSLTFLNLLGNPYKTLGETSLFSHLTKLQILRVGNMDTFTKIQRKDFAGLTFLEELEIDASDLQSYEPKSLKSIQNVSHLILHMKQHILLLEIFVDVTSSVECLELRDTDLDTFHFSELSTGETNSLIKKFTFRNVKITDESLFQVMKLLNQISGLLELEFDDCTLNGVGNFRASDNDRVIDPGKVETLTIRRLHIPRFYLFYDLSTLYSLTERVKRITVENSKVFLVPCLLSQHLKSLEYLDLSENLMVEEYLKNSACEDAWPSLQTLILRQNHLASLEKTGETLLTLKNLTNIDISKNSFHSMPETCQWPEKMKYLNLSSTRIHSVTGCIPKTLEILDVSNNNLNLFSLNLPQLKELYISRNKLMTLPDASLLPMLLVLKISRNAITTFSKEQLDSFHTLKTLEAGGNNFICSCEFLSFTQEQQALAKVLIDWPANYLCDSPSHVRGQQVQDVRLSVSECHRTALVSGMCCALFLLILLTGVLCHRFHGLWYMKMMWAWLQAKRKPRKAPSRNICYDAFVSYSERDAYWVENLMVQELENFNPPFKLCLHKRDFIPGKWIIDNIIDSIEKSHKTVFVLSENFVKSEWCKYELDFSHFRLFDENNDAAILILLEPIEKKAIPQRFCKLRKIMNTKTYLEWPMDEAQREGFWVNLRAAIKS
Description: Screening of phage display libraries by biopanning: Phage display libraries are screened for peptide TLR ligands according to the following procedure. The phage display library is incubated on an in vitro cultured monolayer of cells that express minimal amounts of the TLR of interest (TLR^lo) in order to reduce non-specific binding, and then transferred to an in vitro suspension culture of cells expressing the relevant TLR (TLR^hi) to capture phage with binding specificity for the target TLR. After several washes with PBS to remove phage remaining unbound to the TLR^hi cells, TLR^hi cell-bound phages are harvested by centrifugation. The TLR^hi cells with bound phage are incubated with E. coli (strain BLT5615) in order to amplify the phage. This process is repeated three or more times to yield a phage population enriched for high affinity binding to the target TLR.
In each round of biopanning, the harvested phage that are bound to TLR^hi cells can be titred prior to amplification, amplified, and then titred again prior to initiation of the next cycle of biopanning. In this way, it is possible to determine the percent (%) of input phage in each cycle that are ultimately harvested from the TLR^hi cells. This calculation provides a round-by-round measure of enrichment within the phage display library for phage that display TLR-binding peptides.
Construction of random peptide libraries (RPL): A pentameric random peptide phage display library of T7SELECT phage was constructed essentially as described in Example 2. A pair of phosphorylated oligonucleotides with the sequence NNBNNBNNBNNBNNB (where N=A/G/C/T, B=G/C/T) flanked at the 5′ and 3′ ends by EcoRI and HindIII sites, respectively, was synthesized. Equimolar amounts of the oligonucleotides were annealed by heating for 5 min at 90° C. with gradual cooling to 25° C. The double stranded DNA was ligated to T7Select 10-3 bacteriophage vector (Novagen) that had been previously digested with EcoRI and HindIII. The ligation reactions were packaged in vitro and titred using the host E. coli strain […] that was grown in M9TB (Novagen), generating 2.5×10^7 clones, representing about 75% coverage of the library. The recombinant phage were subjected to several rounds of amplification to generate a total library of 1.35×10^12 phage, ensuring representation in excess of 5×10^4 fold for each clone in the library.
Sequencing of phage inserts: Individual phage clones from the enriched pool are isolated via plaque formation in E. coli. The DNA inserts of individual phage are amplified in PCR using the commercially available primers T7SelectUP (5′-GGAGCTGTCGTATTCCAGTC-3′; SEQ ID NO: 37; Novagen, catalog #70005) and T7SelectDOWN (5′-AACCCCTCAAGACCCGTTTA-3′; SEQ ID NO: 38; Novagen, catalog #70006). The PCR product DNA is purified using the QIAquick 96 PCR Purification Kit (Qiagen) and subjected to DNA sequencing using T7SelectUP and T7SelectDOWN primers.
We constructed a pentameric random peptide phage display library in T7 phage. This phage library was then screened by biopanning as described in Example 3. For this screen, the TLR^lo cells were parental HEK293 (TLR2^−) cells, and the TLR^hi cells were HEK293 cells ectopically expressing human TLR2 (293.hTLR2, see Example 1, above). Phage bound to 293.hTLR2 cells were harvested, titred, and amplified prior to initiation of the each cycle of panning. In this way, it was possible to determine the % of input phage in each cycle that was ultimately harvested from the TLR2^hi cells.
After 4 rounds of biopanning, individual phage clones from the enriched pool were isolated via plaque formation in E. coli. […] phage clones were randomly picked for sequencing. Of the 109 individual clones examined the motif DPDSG was predominant (see Tables 6 and 7). […]

[2] = peptides with no homology to known proteins
[3] = peptides with identity to known microbial proteins

TLR2, sequence (O60603 21-784 limits assumed): as the sequence (O60603 21-784) above

| Substance | % Abundance [1, 2] | % Abundance [1, 3] | other results |
| --- | --- | --- | --- |
| ACGVY (peptide) | – | – | % ABUNDANCE (TLR2): 0.92% |
| ACGVY [peptide TLR2 ligand from phage display] | 0.92% | – | – |
| ADTHQ (peptide) | – | – | % ABUNDANCE (TLR2): 0.9% |
| ADTHQ [peptide TLR2 ligand from phage display] | – | 0.9% | – |
| AGCFS (peptide) | – | – | % ABUNDANCE (TLR2): 0.92% |
| AGCFS [peptide TLR2 ligand from phage display] | 0.92% | – | – |
| AVRLS (peptide) | – | – | % ABUNDANCE (TLR2): 0.92% |
| AVRLS [peptide TLR2 ligand from phage display] | 0.92% | – | – |
| AWAGT [peptide TLR2 ligand from phage display] | – | 0.9% | – |
| CGPKL [peptide TLR2 ligand from phage display] | 0.92% | – | – |
| CVWLQ [peptide TLR2 ligand from phage display] | – | 0.9% | – |
| EVCAP [peptide TLR2 ligand from phage display] | 0.92% | – | – |
| FCGLG [peptide TLR2 ligand from phage display] | 0.92% | – | – |
| GGKLS [peptide TLR2 ligand from phage display] | 0.92% | – | – |
| GPLLH [peptide TLR2 ligand from phage display] | – | 0.9% | – |
| HLLPG [peptide TLR2 ligand from phage display] | – | 0.9% | – |
| IGRFR [peptide TLR2 ligand from phage display] | – | 2.7% | – |
| IHVVP [peptide TLR2 ligand from phage display] | – | 0.9% | – |
| IMRHP [peptide TLR2 ligand from phage display] | 0.92% | – | – |
| IMWFP [peptide TLR2 ligand from phage display] | – | 0.9% | – |
| IYKLA [peptide TLR2 ligand from phage display] | – | 0.9% | – |
| KCQSF [peptide TLR2 ligand from phage display] | 0.92% | – | – |

| Substance | % Abundance [1, 2] | % Abundance [1, 3] | other results |
| --- | --- | --- | --- |
| KGWF [peptide TLR2 ligand from phage display] | – | 0.9% | – |
| KYMPH [peptide TLR2 ligand from phage display] | – | 0.9% | – |
| LRQGR [peptide TLR2 ligand from phage display] | – | 0.9% | – |
| MFGVP [peptide TLR2 ligand from phage display] | – | 0.9% | – |
| MGTLP [peptide TLR2 ligand from phage display] | – | 1.8% | – |
| MISS [peptide TLR2 ligand from phage display] | 0.92% | – | – |
| MRRIL [peptide TLR2 ligand from phage display] | 0.92% | – | – |
| NPPTT [peptide TLR2 ligand from phage display] | 0.92% | – | – |
| NRFGL [peptide TLR2 ligand from phage display] | 0.92% | – | – |
| NRTVF [peptide TLR2 ligand from phage display] | 0.92% | – | – |
| NYRRW [peptide TLR2 ligand from phage display] | – | 0.9% | – |
| PESGV [peptide TLR2 ligand from phage display] | 0.92% | – | – |
| RGGF [peptide TLR2 ligand from phage display] | 0.92% | – | – |
| RGGSK [peptide TLR2 ligand from phage display] | 3.67% | – | – |
| RVVAP [peptide TLR2 ligand from phage display] | – | 0.9% | – |
| SGGLF [peptide TLR2 ligand from phage display] | 0.92% | – | – |
| SHIAL [peptide TLR2 ligand from phage display] | – | 0.9% | – |
| SRHGR [peptide TLR2 ligand from phage display] | 0.92% | – | – |
| THKPK [peptide TLR2 ligand from phage display] | – | 0.9% | – |
| VGKND [peptide TLR2 ligand from phage display] | – | 0.9% | – |
| VSEGV [peptide TLR2 ligand from phage display] | 3.67% | – | – |
